Biological target: recombinant human core Mitotic Checkpoint Complex (untagged CDC20, SBP-BUBR1, His6-MAD2) (human, UniProt Q12834;O60566;Q13257)
Assay: pull-down

recombinant human core Mitotic Checkpoint Complex (untagged CDC20, SBP-BUBR1, His6-MAD2), sequence (O60566 whole entry, chain 2 of 2): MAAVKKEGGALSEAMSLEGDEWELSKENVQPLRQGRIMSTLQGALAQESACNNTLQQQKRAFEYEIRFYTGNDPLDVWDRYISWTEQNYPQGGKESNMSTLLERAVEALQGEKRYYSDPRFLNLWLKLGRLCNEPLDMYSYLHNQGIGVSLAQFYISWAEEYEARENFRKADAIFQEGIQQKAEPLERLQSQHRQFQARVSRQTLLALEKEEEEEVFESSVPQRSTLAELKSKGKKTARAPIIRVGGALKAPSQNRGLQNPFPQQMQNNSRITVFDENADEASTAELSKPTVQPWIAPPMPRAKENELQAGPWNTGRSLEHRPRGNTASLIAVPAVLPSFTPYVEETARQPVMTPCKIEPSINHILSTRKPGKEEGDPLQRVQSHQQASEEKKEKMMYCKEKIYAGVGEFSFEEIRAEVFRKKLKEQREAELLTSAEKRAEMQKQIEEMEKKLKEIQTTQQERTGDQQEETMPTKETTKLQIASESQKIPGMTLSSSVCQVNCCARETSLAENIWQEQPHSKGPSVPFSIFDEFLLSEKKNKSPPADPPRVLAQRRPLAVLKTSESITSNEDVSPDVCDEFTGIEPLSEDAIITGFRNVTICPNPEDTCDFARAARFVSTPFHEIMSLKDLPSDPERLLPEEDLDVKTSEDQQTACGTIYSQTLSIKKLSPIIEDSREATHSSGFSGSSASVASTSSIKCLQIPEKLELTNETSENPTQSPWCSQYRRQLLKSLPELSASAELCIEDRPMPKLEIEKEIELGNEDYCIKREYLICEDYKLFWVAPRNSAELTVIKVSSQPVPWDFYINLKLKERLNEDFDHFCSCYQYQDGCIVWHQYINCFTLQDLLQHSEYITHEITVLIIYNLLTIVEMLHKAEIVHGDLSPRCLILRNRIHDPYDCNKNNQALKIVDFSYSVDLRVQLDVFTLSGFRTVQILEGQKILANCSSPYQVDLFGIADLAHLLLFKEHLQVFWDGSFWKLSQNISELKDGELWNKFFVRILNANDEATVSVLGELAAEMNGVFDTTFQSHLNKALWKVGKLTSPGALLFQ
recombinant human core Mitotic Checkpoint Complex (untagged CDC20, SBP-BUBR1, His6-MAD2), sequence (Q13257 whole entry, chain 3 of 2): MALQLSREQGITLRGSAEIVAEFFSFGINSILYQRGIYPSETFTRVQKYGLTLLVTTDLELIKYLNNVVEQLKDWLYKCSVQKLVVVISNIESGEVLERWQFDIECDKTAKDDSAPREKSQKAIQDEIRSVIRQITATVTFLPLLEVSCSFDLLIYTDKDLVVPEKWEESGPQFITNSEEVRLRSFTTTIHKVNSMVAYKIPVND

binding result: binds
B1: recombinant His6-tagged CDC20 ΔKILR (K129ILR/AAAA) mutant (natural protein)
chain: MAQFAFESDLHSLLQLDAPIPNAPPARWQRKAKEAAGPAPSPMRAANRSHSAGRTPGRTPGKSSSKVQTTPSKPGGDRYIPHRSAAQMEVASFLLSKENQPENSQTPTKKEHQKAWALNLNGFDVEEAAAAALSGKPQNAPEGYQNRLKVLYSQKATPGSSRKTCRYIPSLPDRILDAPEIRNDYYLNLVDWSSGNVLAVALDNSVYLWSASSGDILQLLQMEQPGEYISSVAWIKEGNYLAVGTSSAEVQLWDVQQQKRLRNMTSHSARVGSLSWNSYILSSGSRSGHIHHHDVRVAEHHVATLSGHSQEVCGLRWAPDGRHLASGGNDNLVNVWPSAPGEGGWVPLQTFTQHQGAVKAVAWCPWQSNVLATGGGTSDRHIRIWNVCSGACLSAVDAHSQVCSILWSPHYKELISGHGFAQNQLVIWKYPTMAKVAELKGHTSRVLSLTMSPDGATVASAAADETLRLWRCFELDPARRREREKASAAKSSLIHQGIR

From paper PMC4312099 (Nature, 2014)
